The record followed here is US20250115669A1, “FGFR1/KLB Targeting Agonistic Antigen-Binding Proteins and Conjugates Thereof with GLP-1R Agonistic Peptides” (SANOFI, priority 2020, published 2025).

To fix the notation:
B1: Ab0406: IgG4 PE; 16H7 VL (Y48del, D95T, W90F, S1C, S94C); 16H7 VH (M34V, H52S, F54W, I83T, D109E) (antibody)
VH: QVTLKESGPVLVKPTETLTLTCTVSGFSLNNARVGVSWIRQPPGKALEWLASIWSNDEKSYSTSLKSRLTISKDTSKSQVVLTMTNMDPVDTATYYCARSVVTGGYYYEGMDVWGQGTTVTVSS
light: CYVLTQPPSVSVAPGQTARITCGGNNIGSESVHWYQQKPGQAPVLVVDDSDRPSGIPERFSGSNSGNTATLTISRVEAGDEADYYCQVFDGNCTHVVFGGGTKLTVLGQPKANPTVTLFPPSSEELQANKATLVCLISDFYPGAVTVAWKADGSPVKAGVETTKPSKQSNNKYAASSYLSLTPEQWKSHRSYSCQVTHEGSTVEKTVAPTECS
B2: Ab0327: IgG4 PE; 16H7 VL (N25S, D49Y, D50Y, D91E, N93E); 16H7 VH (M34V, I83T, D109E) (antibody)
VH: QVTLKESGPVLVKPTETLTLTCTVSGFSLNNARVGVSWIRQPPGKALEWLAHIFSNDEKSYSTSLKSRLTISKDTSKSQVVLTMTNMDPVDTATYYCARSVVTGGYYYEGMDVWGQGTTVTVSS
light: SYVLTQPPSVSVAPGQTARITCGGSNIGSESVHWYQQKPGQAPVLVVYYYSDRPSGIPERFSGSNSGNTATLTISRVEAGDEADYYCQVWEGESDHVVFGGGTKLTVLGQPKANPTVTLFPPSSEELQANKATLVCLISDFYPGAVTVAWKADGSPVKAGVETTKPSKQSNNKYAASSYLSLTPEQWKSHRSYSCQVTHEGSTVEKTVAPTECS
B3: Ab0330: IgG4 PE; 16H7 VL (N25S, D49S, D50E, D91A, N93E); 16H7 VH (M34V, I83T, D109E) (antibody)
VH: QVTLKESGPVLVKPTETLTLTCTVSGFSLNNARVGVSWIRQPPGKALEWLAHIFSNDEKSYSTSLKSRLTISKDTSKSQVVLTMTNMDPVDTATYYCARSVVTGGYYYEGMDVWGQGTTVTVSS
light: SYVLTQPPSVSVAPGQTARITCGGSNIGSESVHWYQQKPGQAPVLVVYSESDRPSGIPERFSGSNSGNTATLTISRVEAGDEADYYCQVWAGESDHVVFGGGTKLTVLGQPKANPTVTLFPPSSEELQANKATLVCLISDFYPGAVTVAWKADGSPVKAGVETTKPSKQSNNKYAASSYLSLTPEQWKSHRSYSCQVTHEGSTVEKTVAPTECS
B4: Ab0416: IgG4 PE; 16H7 VL (N25S, D49Y, D50E, D91E, N93E); 16H7 VH (M34V, I83T, D109E) (antibody)
VH: QVTLKESGPVLVKPTETLTLTCTVSGFSLNNARVGVSWIRQPPGKALEWLAHIFSNDEKSYSTSLKSRLTISKDTSKSQVVLTMTNMDPVDTATYYCARSVVTGGYYYEGMDVWGQGTTVTVSS
light: SYVLTQPPSVSVAPGQTARITCGGSNIGSESVHWYQQKPGQAPVLVVYYESDRPSGIPERFSGSNSGNTATLTISRVEAGDEADYYCQVWEGESDHVVFGGGTKLTVLGQPKANPTVTLFPPSSEELQANKATLVCLISDFYPGAVTVAWKADGSPVKAGVETTKPSKQSNNKYAASSYLSLTPEQWKSHRSYSCQVTHEGSTVEKTVAPTECS
B5: Ab0329: IgG4 PE; 16H7 VL (N25S, D49Y, D50S, D91A, N93S); 16H7 VH (M34V, I83T, D109E) (antibody)
VH: QVTLKESGPVLVKPTETLTLTCTVSGFSLNNARVGVSWIRQPPGKALEWLAHIFSNDEKSYSTSLKSRLTISKDTSKSQVVLTMTNMDPVDTATYYCARSVVTGGYYYEGMDVWGQGTTVTVSS
light: SYVLTQPPSVSVAPGQTARITCGGSNIGSESVHWYQQKPGQAPVLVVYYSSDRPSGIPERFSGSNSGNTATLTISRVEAGDEADYYCQVWAGSSDHVVFGGGTKLTVLGQPKANPTVTLFPPSSEELQANKATLVCLISDFYPGAVTVAWKADGSPVKAGVETTKPSKQSNNKYAASSYLSLTPEQWKSHRSYSCQVTHEGSTVEKTVAPTECS
B6: Ab0326: IgG4 PE; 16H7 VL (N25S, D49Y, D50E, D91E, N93S); 16H7 VH (M34V, I83T, D109E) (antibody)
VH: QVTLKESGPVLVKPTETLTLTCTVSGFSLNNARVGVSWIRQPPGKALEWLAHIFSNDEKSYSTSLKSRLTISKDTSKSQVVLTMTNMDPVDTATYYCARSVVTGGYYYEGMDVWGQGTTVTVSS
light: SYVLTQPPSVSVAPGQTARITCGGSNIGSESVHWYQQKPGQAPVLVVYYESDRPSGIPERFSGSNSGNTATLTISRVEAGDEADYYCQVWEGSSDHVVFGGGTKLTVLGQPKANPTVTLFPPSSEELQANKATLVCLISDFYPGAVTVAWKADGSPVKAGVETTKPSKQSNNKYAASSYLSLTPEQWKSHRSYSCQVTHEGSTVEKTVAPTECS
B7: Ab0408: IgG4 PE; 16H7 VL (Y48del, D95T, W90F); 16H7 VH (M34V, H52W, I83T, D109E) (antibody)
VH: QVTLKESGPVLVKPTETLTLTCTVSGFSLNNARVGVSWIRQPPGKALEWLAWIFSNDEKSYSTSLKSRLTISKDTSKSQVVLTMTNMDPVDTATYYCARSVVTGGYYYEGMDVWGQGTTVTVSS
light: SYVLTQPPSVSVAPGQTARITCGGNNIGSESVHWYQQKPGQAPVLVVDDSDRPSGIPERFSGSNSGNTATLTISRVEAGDEADYYCQVFDGNSTHVVFGGGTKLTVLGQPKANPTVTLFPPSSEELQANKATLVCLISDFYPGAVTVAWKADGSPVKAGVETTKPSKQSNNKYAASSYLSLTPEQWKSHRSYSCQVTHEGSTVEKTVAPTECS
B8: Ab0328: IgG4 PE; 16H7 VL (N25S, D49Y, D50A, D91A, N93S); 16H7 VH (M34V, I83T, D109E) (antibody)
VH: QVTLKESGPVLVKPTETLTLTCTVSGFSLNNARVGVSWIRQPPGKALEWLAHIFSNDEKSYSTSLKSRLTISKDTSKSQVVLTMTNMDPVDTATYYCARSVVTGGYYYEGMDVWGQGTTVTVSS
light: SYVLTQPPSVSVAPGQTARITCGGSNIGSESVHWYQQKPGQAPVLVVYYASDRPSGIPERFSGSNSGNTATLTISRVEAGDEADYYCQVWAGSSDHVVFGGGTKLTVLGQPKANPTVTLFPPSSEELQANKATLVCLISDFYPGAVTVAWKADGSPVKAGVETTKPSKQSNNKYAASSYLSLTPEQWKSHRSYSCQVTHEGSTVEKTVAPTECS
B9: Ab0410: IgG4 PE; 16H7 VL (Y48del, D95S, W90Y); 16H7 VH (M34V, I83T, D109E) (antibody)
VH: QVTLKESGPVLVKPTETLTLTCTVSGFSLNNARVGVSWIRQPPGKALEWLAHIFSNDEKSYSTSLKSRLTISKDTSKSQVVLTMTNMDPVDTATYYCARSVVTGGYYYEGMDVWGQGTTVTVSS
light: SYVLTQPPSVSVAPGQTARITCGGNNIGSESVHWYQQKPGQAPVLVVDDSDRPSGIPERFSGSNSGNTATLTISRVEAGDEADYYCQVYDGNSSHVVFGGGTKLTVLGQPKANPTVTLFPPSSEELQANKATLVCLISDFYPGAVTVAWKADGSPVKAGVETTKPSKQSNNKYAASSYLSLTPEQWKSHRSYSCQVTHEGSTVEKTVAPTECS
B10: Ab0417: IgG4 PE; 16H7 VL (N25S, D49Y, D50E, D91H, N93E); 16H7 VH (M34V, I83T, D109E) (antibody)
VH: QVTLKESGPVLVKPTETLTLTCTVSGFSLNNARVGVSWIRQPPGKALEWLAHIFSNDEKSYSTSLKSRLTISKDTSKSQVVLTMTNMDPVDTATYYCARSVVTGGYYYEGMDVWGQGTTVTVSS
light: SYVLTQPPSVSVAPGQTARITCGGSNIGSESVHWYQQKPGQAPVLVVYYESDRPSGIPERFSGSNSGNTATLTISRVEAGDEADYYCQVWHGESDHVVFGGGTKLTVLGQPKANPTVTLFPPSSEELQANKATLVCLISDFYPGAVTVAWKADGSPVKAGVETTKPSKQSNNKYAASSYLSLTPEQWKSHRSYSCQVTHEGSTVEKTVAPTECS

The test deals with T1, human beta-Klotho (Homo sapiens, UniProt Q86Z14).
T1 sequence (Q86Z14 1-1044): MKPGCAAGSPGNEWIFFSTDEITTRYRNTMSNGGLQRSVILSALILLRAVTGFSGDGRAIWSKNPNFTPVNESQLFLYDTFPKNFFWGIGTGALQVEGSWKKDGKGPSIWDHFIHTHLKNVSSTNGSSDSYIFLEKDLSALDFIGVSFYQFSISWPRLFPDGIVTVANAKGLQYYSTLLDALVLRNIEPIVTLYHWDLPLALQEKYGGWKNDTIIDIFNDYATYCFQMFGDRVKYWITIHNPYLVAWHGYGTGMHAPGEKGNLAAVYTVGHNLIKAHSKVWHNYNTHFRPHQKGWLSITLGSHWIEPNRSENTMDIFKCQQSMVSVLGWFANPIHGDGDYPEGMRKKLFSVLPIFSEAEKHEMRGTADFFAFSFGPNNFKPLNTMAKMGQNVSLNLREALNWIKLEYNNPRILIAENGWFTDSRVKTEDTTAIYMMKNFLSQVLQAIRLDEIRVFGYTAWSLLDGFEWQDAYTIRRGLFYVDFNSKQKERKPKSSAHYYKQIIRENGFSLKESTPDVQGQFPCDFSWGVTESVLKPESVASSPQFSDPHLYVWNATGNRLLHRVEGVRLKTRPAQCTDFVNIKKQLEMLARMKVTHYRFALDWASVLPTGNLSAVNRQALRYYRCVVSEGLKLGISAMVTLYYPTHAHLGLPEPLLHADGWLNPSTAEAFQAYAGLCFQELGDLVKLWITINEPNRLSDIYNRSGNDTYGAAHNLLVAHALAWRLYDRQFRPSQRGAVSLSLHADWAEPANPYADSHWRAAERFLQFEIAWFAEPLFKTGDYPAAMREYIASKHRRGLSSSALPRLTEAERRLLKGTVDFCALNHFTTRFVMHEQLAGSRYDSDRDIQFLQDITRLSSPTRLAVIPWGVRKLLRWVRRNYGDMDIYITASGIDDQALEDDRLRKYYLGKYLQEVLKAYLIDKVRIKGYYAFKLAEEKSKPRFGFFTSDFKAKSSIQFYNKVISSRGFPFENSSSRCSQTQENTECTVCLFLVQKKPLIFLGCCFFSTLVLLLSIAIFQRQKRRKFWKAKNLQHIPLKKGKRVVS
Kind of test: SPR off-rate screening of antibody mutants (human beta-Klotho captured by anti-His antibody). It is filed as binding. Particulars: mean, n=3. How it is done:
Screening of antibody mutants for binding to human beta-Klotho was determined in a different SPR assay set up. Human beta-Klotho was affinity captured by an anti-His antibody (from His capture kit, GE Healthcare) that was immobilized to a series S CM5 chip (GE Healthcare) by amine reactive coupling as described above. The antibody samples were used as analytes at 50 nmol/L concentration. Association time was 240 sec and dissociation time was 300 sec. Chip surfaces were regenerated using the regeneration solution supplied with the His capture kit. The off-rates (kd) were determined using single exponential fitting in the Biacore 8K Evaluation Software version 1.1.1.7442 (GE Healthcare).
In the case of B1, the “koff human KLB” value is on record as “no binding”.
In the case of B2, the “koff human KLB” value was 0.0003459 s⁻¹.
Take B3: the “koff human KLB” value is recorded as “invalid fit”.
Take B4: the “koff human KLB” value amounted to 0.00107 s⁻¹.
As to B5, the “koff human KLB” value is “invalid fit”.
The value for B6 was 0.00175 s⁻¹; that for B7 was “no binding”.
For the molecule B8, the “koff human KLB” value is on record as “invalid fit”.
Take B9: the “koff human KLB” value was “no binding”.
Next, B10: 0.0003027 s⁻¹.
